Values quoted from earlier work as cited in article doi:10.1101/2025.11.26.690829.

Target: TDP-43 NTD (Homo sapiens) (UniProt Q13148)

In the case of TDP-43 NTD (from UniProt Q13148), the Kd is listed as 2000 nM.
